According to article PMC3478262:

Biological target: Rv0132c–Δ38 protein (Mycobacterium tuberculosis H37Rv) (UniProt P96809)
Test: SEC

**Q.** With “Rv0132c–Δ38 protein (from UniProt P96809 39-360) (domain or fragment)” as the substance, how does the stoichiometry N read?
**A.** 2
